Patent publication US20130052176, “APTAMER FOR NGF AND USE THEREOF” (SHIONOGI & CO., LTD, published 2013)

What was measured:
Details in all cases: tags: amine-coupled to CM5 chip in SPR; soluble in cell assays; chain copies: 2
[1] = target: T1, NGF (nerve growth factor) (human, UniProt P01138 P01138:122-241); test: cell_activity; neurite outgrowth, NGF 1.1 nM; SPR binding; blocks NGF-TrkA; TF-1 IC50 20.4 nM
Protocol: (§1) The neurite outgrowth inhibitory activity of the aptamer obtained in Example 1 was evaluated by using Neuroscreen-1 cell, which is a subclone of PC-12 cells.
(§2) The cells (2500 cells per well) were cultured for one day in an RPMI-1640 medium containing 2.5% horse serum and 1.25% fetal bovine serum in a 96 well flat-bottom plate coated with collagen type IV. […] Two days later, the cytoplasm and nuclei were stained using Cellomics Neurite Outgrowth Kit (manufactured by Thermo Scientific), and neurite length per cell was measured by Cellomics ArrayScan VTI (manufactured by Thermo Scientific). With the neurite length per cell obtained by the addition of NGF alone as inhibitory activity 0%, and that of the cell obtained by NGF free culture for 2 days as inhibitory activity 100%, the inhibitory activity of the aptamer was calculated from the neurite length per cell obtained by culturing with the addition of NGF and the aptamer in mixture. When the inhibitory activity was 0% or below, ‘0%’ is indicated.

[2] = target: T1, NGF (nerve growth factor); test: cell_activity; neurite outgrowth, NGF 1.1 nM; SPR binding; TF-1 IC50 3.2 nM
[3] = target: T1, NGF (nerve growth factor); test: cell_activity; neurite outgrowth, NGF 1.1 nM; SPR binding; TF-1 IC50 5.7 nM
Protocol: as §1, §2

[4] = target: T1, NGF (nerve growth factor); test: cell_activity; neurite outgrowth, NGF 1.1 nM; SPR binding; TF-1 IC50 1.0 nM
[5] = target: T1, NGF (nerve growth factor); test: cell_activity; neurite outgrowth, NGF 0.38 nM; SPR binding; TF-1 IC50 0.052 nM
Protocol: as §1, §2

[6] = target: T1, NGF (nerve growth factor); test: cell_activity; neurite outgrowth, NGF 0.38 nM; SPR binding; TF-1 IC50 0.120 nM
Protocol: as §1, §2

[7] = target: T1, NGF (nerve growth factor); test: cell_activity; neurite outgrowth, NGF 0.38 nM; SPR binding; TF-1 IC50 0.175 nM
Protocol: as §1, §2

[8] = target: T1, NGF (nerve growth factor); test: cell_activity; neurite outgrowth, NGF 0.38 nM; SPR binding; TF-1 IC50 0.061 nM
Protocol: as §1, §2

[9] = target: T1, NGF (nerve growth factor); test: cell_activity; neurite outgrowth, NGF 0.38 nM; SPR binding; TF-1 IC50 0.081 nM
[10] = target: T1, NGF (nerve growth factor); test: cell_activity; neurite outgrowth, NGF 0.38 nM; SPR binding; TF-1 IC50 0.100 nM
Protocol: as §1, §2

[11] = target: T1, NGF (nerve growth factor); test: cell_activity; neurite outgrowth, NGF 0.38 nM; SPR binding; TF-1 IC50 0.073 nM
Protocol: as §1, §2

[12] = target: T1, NGF (nerve growth factor); test: cell_activity; neurite outgrowth, NGF 0.38 nM; SPR binding; TF-1 IC50 0.101 nM
Protocol: as §1, §2

[13] = target: T1, NGF (nerve growth factor); test: cell_activity; neurite outgrowth, NGF 0.38 nM; SPR binding; TF-1 IC50 0.128 nM
Protocol: as §1, §2

[14] = target: T1, NGF (nerve growth factor); test: cell_activity; neurite outgrowth, NGF 0.38 nM; SPR binding; TF-1 IC50 0.108 nM
Protocol: as §1, §2

[15] = target: T1, NGF (nerve growth factor); test: cell_activity; neurite outgrowth, NGF 0.38 nM; SPR binding; TF-1 IC50 0.186 nM
Protocol: as §1, §2

T1 sequence (P01138 122-241, one chain of several): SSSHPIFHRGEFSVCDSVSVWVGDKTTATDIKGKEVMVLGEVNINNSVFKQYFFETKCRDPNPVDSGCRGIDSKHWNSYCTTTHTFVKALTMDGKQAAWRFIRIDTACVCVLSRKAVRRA

B1: aptamer ID 1 (ssRNA)
RNA: GGGAGAACUUCGACCAGAAGUUUGAAAGAAACCCAAAUUAAAGUGAACAGUAUGUGCGCAUACA
modifications: 2'-F at all pyrimidines
[1]
  IC50: 2.1 nM

B2: aptamer ID 19 (ssRNA)
RNA: GGGAGAACUUCGCCAGAAGUUUGAAAGAAACCCAAAUAAAGAUGUGCGCAUC
modifications: 2'-F at all pyrimidines
[2]
  IC50: 1.3 nM

## GGGAGACUCGCCAGAGUUGAAAGAAACCCAAAUAAAGAUGUGCGCAUCA (ssRNA, 2'-F at all pyrimidines) [aptamer ID 22]
[3]
  IC50: 1.3 nM

B3: aptamer ID 21 (ssRNA)
RNA: GGGAGAACUUCGCCAGAAGUUUGAAAGAAACCCAAAUAAAGAGUGCGCUCA
modifications: 2'-F at all pyrimidines
[4]
  IC50: 1.1 nM

B4: aptamer ID 26(12) (ssRNA)
RNA: GGGAGACUCGCCAGAGUUGAAAGAAACCCAAAUAAGUGUGCGCAC
modifications: 2'-F pyrimidines; 2'-OMe purines except 2'-OH at 3,19-22,24,26; 5' idT and 3' idT
[5]
  IC50: 0.036 nM

B5: aptamer ID 26(62) (ssRNA)
RNA: B4 RNA
modifications: 2'-F pyrimidines except 2'-OMe at 7,8,9,11,12,17,18,33,37,45; 2'-OMe purines except 2'-OH at 3,19,20 and LNA at a26; 5' idT and 3' idT
[6]
  IC50: 0.228 nM

B6: aptamer ID 26(21) (mixed)
RNA: B4 RNA
modifications: 2'-F pyrimidines except dC at 7; 2'-OMe purines except 2'-OH at 3,19,20,26; 5' idT and 3' idT
[7]
  IC50: 0.283 nM

B7: aptamer ID 26(44) (ssRNA)
RNA: B4 RNA
modifications: 2'-F pyrimidines except 2'-OMe at 7,11,12,17,33,45; 2'-OMe purines except 2'-OH at 3,19,20,26; 5' idT and 3' idT
[8]
  IC50: 0.074 nM

B8: aptamer ID 26(15) (ssRNA)
RNA: B4 RNA
modifications: 2'-F pyrimidines; 2'-OMe purines except 2'-OH at 3,5,19,20,24,26; 5' idT and 3' idT
[9]
  IC50: 0.067 nM

B9: aptamer ID 26(41) (mixed)
RNA: B4 RNA
modifications: 2'-F pyrimidines except dC at 29 and dT at 37; 2'-OMe purines except 2'-OH at 3,19,20,26; 5' idT and 3' idT
[10]
  IC50: 0.104 nM

B10: aptamer ID 26(42) (mixed)
RNA: B4 RNA
modifications: 2'-F pyrimidines except dC at 9,29 and dT at 33,37; 2'-OMe purines except 2'-OH at 3,19,20,26; 5' idT and 3' idT
[11]
  IC50: 0.083 nM

B11: aptamer ID 26(59) (ssRNA)
RNA: B4 RNA
modifications: 2'-F pyrimidines except 2'-OMe at 7,8,9,11,12,17,18,33,37,45; 2'-OMe purines except 2'-F at g3 and 2'-OH at 19,20,26; 5' idT and 3' idT
[12]
  IC50: 0.17 nM

B12: aptamer ID 26(43) (mixed)
RNA: B4 RNA
modifications: 2'-F pyrimidines except dC at 7,9,11,12,29,45 and dT at 8,17,33,37; 2'-OMe purines except 2'-OH at 3,19,20,26; 5' idT and 3' idT
[13]
  IC50: 0.073 nM

B13: aptamer ID 26(51) (ssRNA)
RNA: B4 RNA
modifications: 2'-F pyrimidines except 2'-OMe at 7,8,9,11,12,17,18,33,37,45; 2'-OMe purines except 2'-OH at 3,19,20; 5' idT and 3' idT
[14]
  IC50: 0.191 nM

B14: aptamer ID 26(22) (mixed)
RNA: B4 RNA
modifications: 2'-F pyrimidines except dT at 8; 2'-OMe purines except 2'-OH at 3,19,20,26; 5' idT and 3' idT
[15]
  IC50: 0.293 nM
